Assay results as given in the supplement of paper PMC10899765.

Experiments:
Details in all cases: 20 nM; 72 h
[1] = tested on: MCF10A; experiment: percent viability (nuclei count relative to siNT); higher = more viable cells
Experimental: (§1)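 After 72 h, cells were fixed and stained with Hoechst and anti-fibrillarin, and nucleoli per nucleus were counted with CellProfiler. Values are plate-adjusted percent effect for the one-nucleolus and 5+ nucleoli phenotypes, normalised to siNT (0%) and to the positive controls siNOL11 or siKIF11 (100%), as the mean of biological triplicates. Percent viability is the nuclei count relative to siNT.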

[2] = tested on: MCF10A; experiment: 5+ nucleoli phenotype percent effect (relative to siNT 0% and siKIF11 100%); higher = more cells with five or more nucleoli
Experimental: as §1

[3] = tested on: MCF10A; experiment: one-nucleolus phenotype percent effect (relative to siNT 0% and siNOL11 100%); higher = more cells with one nucleolus (ribosome biogenesis inhibition)
Experimental: as §1

Sequence	percent viability [1]	5+ nucleoli phenotype percent effect [2]	one-nucleolus phenotype percent effect [3]
CUCCUGACUCCAGGUCCUGUGU [hsa-miR-378a-5p]	25.2%	-8.66%	10.6%
UCUGUAGCCUGGGAGCAAUGGGGU [hsa-miR-3137]	13.2%	-20.3%	24%
UUUCCCUUCAGAGCCUGGCUUU [hsa-miR-4755-5p]	52.8%	1.53%	3.84%
AGGAGAAGUAAAGUAGAA [hsa-miR-4434]	74.7%	49.4%	-15.7%
UUUGGUCCCCUUCAACCAGCUG [hsa-miR-133a]	34.5%	-24.8%	20.5%
UAGCAGCACGUAAAUAUUGGCG [hsa-miR-16-5p]	15.8%	-19.3%	27.2%
GAGACUGGGGUGGGGCC [hsa-miR-4463]	64.8%	-7.37%	-14.3%
UGGGGAAGGCUUGGCAGGGAAGA [hsa-miR-6780b-5p]	25.6%	-35.6%	38%
UGGGCCAUGCAUUUCUAGAACU [hsa-miR-6508-3p]	40.2%	-35%	41.6%
AUAGUCCGAGUAACGUCGGGGC [hsa-miR-6723-5p]	54%	-28.9%	16.5%
CGAGGGGUAGAAGAGCACAGGGG [hsa-miR-6738-5p]	75.7%	26.9%	-8.33%
AACACACCUAUUCAAGGAUUCA [hsa-miR-362-3p]	47.7%	30.7%	-7.86%
CUUUCAGUCGGAUGUUUGCAGC [hsa-miR-30a-3p]	86.1%	-31%	1.29%
CUGGGAGGUGUGAUAUUGUGGU [hsa-miR-3689b-3p]	11.3%	-12.6%	33.2%
CCAGACAGAAUUCUAUGCACUUUC [hsa-miR-1324]	120%	49.8%	-11%
AAAGGAAAGUGUAUCCUAAAAG [hsa-miR-651-3p]	139%	37%	-19.5%
CAAAAGCAAUCGCGGUUUUUGC [hsa-miR-548e-5p]	60.8%	44%	-2.62%
CACAAGGUAUUGGUAUUACCU [hsa-miR-624-3p]	21.1%	-46.2%	71%
AGCUCUGCUGCUCACUGGCAGU [hsa-miR-3194-3p]	22.1%	6.75%	1.77%
GUGAACGGGCGCCAUCCCGAGG [hsa-miR-887]	73.2%	-3.19%	-1.47%

Sequence	percent viability [1]	5+ nucleoli phenotype percent effect [2]	one-nucleolus phenotype percent effect [3]
CCCCGGGAACGUCGAGACUGGAGC [hsa-miR-1247-3p]	17.1%	-15.3%	41.2%
ACUUUAACAUGGAGGCACUUGC [hsa-miR-302d-5p]	92.5%	29.1%	-13.5%
UGUGACCCUAGAAUAAUUAC [hsa-miR-7973]	29.4%	-4.82%	-2.95%
GGAGGAACCUUGGAGCUUCGGC [hsa-miR-3928]	50%	45.7%	-14.5%
ACAUUUUCCAGCCCAUUCA [hsa-miR-1250-3p]	12.3%	-18.3%	53.7%
GCUCUGACUUUAUUGCACUACU [hsa-miR-301a-5p]	68.8%	59.9%	-23.6%
ACAUCCUGCUCCACAGGGCAGAGG [hsa-miR-4793-5p]	52.3%	-0.984%	-10.7%
AUCGGGCCCUCGGCGCCGG [hsa-miR-3181]	31.6%	-23.1%	8.67%
UAGGGUACUCAGAGCAAGUUGU [hsa-miR-6841-5p]	63.6%	14.6%	-4.08%
CUGCAGACUCGACCUCCCAGGC [hsa-miR-1273h-3p]	41.7%	-28.5%	13.6%
AAAGAUCUGGAAGUGGGAGACA [hsa-miR-3156-5p]	43.6%	45.1%	-18.8%
UAAAGUGCUGACAGUGCAGAU [hsa-miR-106b-5p]	91.2%	5.03%	-11.2%
CUGGGGAGUGGCUGGGGAG [hsa-miR-6763-5p]	29.7%	-2.28%	30.5%
UAGAGAGGGGAAGGAUGUGAUGU [hsa-miR-6758-5p]	44.4%	-13.9%	12.9%
CAAGCUCGUGUCUGUGGGUCCG [hsa-miR-99b-3p]	84.3%	-2.82%	8.24%
AGGCAAGAUGCUGGCAUAGCU [hsa-miR-31-5p]	16.8%	-4.74%	26%
GCAUGUGAUGAAGCAAAUCAGU [hsa-miR-3607-5p]	52.8%	-8.33%	-2.14%
UUAUAAUACAACCUGAUAAGUG [hsa-miR-374a-5p]	100%	26.1%	-14.4%
GAAGUGCUUCGAUUUUGGGGUGU [hsa-miR-373-3p]	65.4%	47.5%	-22.2%
UGUAAACAUCCUACACUCUCAGC [hsa-miR-30c-5p]	69.4%	21.9%	3.37%

Sequence	percent viability [1]	5+ nucleoli phenotype percent effect [2]	one-nucleolus phenotype percent effect [3]
CUUCCCCCCAGUAAUCUUCAUC [hsa-miR-3679-3p]	88.6%	-16.6%	4.01%
UUCUCUCUGUCUUUCUCUCUCAG [hsa-miR-6873-3p]	35.2%	46.6%	-19%
AACUCCAAACACUCAAAACUCA [hsa-miR-3145-5p]	119%	43.6%	-24.6%
ACUCAAAAUGGGGGCGCUUUCC [hsa-miR-373-5p]	83.7%	34.3%	-11.8%
GCUUCUGUAGUGUAGUC [hsa-miR-3182]	57%	35.6%	-17.1%
GUGAGUCAGGGUGGGGCUGG [hsa-miR-937-5p]	41.5%	-10.1%	19.2%
UAAAUUUCACCUUUCUGAGAAGG [hsa-miR-513a-3p]	49%	-3.52%	18%
CCAGAGGUGGGGACUGAG [hsa-miR-4257]	24.6%	1.69%	22.3%
CUUAGCAGGUUGUAUUAUCAUU [hsa-miR-374b-3p]	67.5%	-9.55%	-6.79%
CAGGGAGGUGAAUGUGAU [hsa-miR-1321]	20.2%	6.81%	19.8%
AUGAUCCAGGAACCUGCCUCU [hsa-miR-640]	32.2%	-28.9%	28.8%
UAAUACUGUCUGGUAAAACCGU [hsa-miR-429]	112%	61.9%	-19%
UGAGAUGAAGCACUGUAGCUC [hsa-miR-143-3p]	47.9%	-1.77%	-0.991%
AAUUCCCUUGUAGAUAACCCGG [hsa-miR-3938]	129%	51.2%	-32%
CCUGCGUGUUUUCUGUCCAA [hsa-miR-4520b-5p]	51%	-6.92%	1.66%
CAAAAGUGAUCGUGGUUUUUG [hsa-miR-548t-5p]	51.5%	9.99%	-10.3%
AAUGUGUAGCAAAAGACAGA [hsa-miR-511-3p]	18.7%	-40.6%	55.2%
UGGCCAAAAAGCAGGCAGAGA [hsa-miR-3926]	31.6%	0.491%	11.5%
AUGCUGACAUAUUUACUAGAGG [hsa-miR-628-5p]	107%	32.8%	-9.78%
